In the supplement of paper PMC10567573:

Assay: protein stability index of a GFP-peptide fusion (GPS, HEK-293T) (PSI 1-6); higher = more stable
Conditions: c terminus: a fixed tail appended
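Also: lentivirally expressed fusions sorted by FACS into six bins by GFP to DsRed ratio, PSI derived from sequencing read proportions per bin multiplied by bin number.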

Work on VFQHHQYLSPLERKRLAREMQLSE [VENTX WT] yielded a protein stability index (parent: IOH36691_19) of 2.52.

QKKDCVPLMKPHRPWADTCSSSGK gave a protein stability index (parent: IOH40237_6) of 3.2.

Protein YSCPATNECEITKRRRKSCQACRF [ESRRG WT] has a protein stability index (parent: IOH39815_24) of 3.16.

With LKASMRELGLLIFFLFIGVILFSS [KCNA1 WT] the protein stability index (parent: IOH35854_54) was 2.1.

In the case of QSSHYLQWILDKQDLLKERQKDLK [CCNC WT], the protein stability index (parent: IOH40631_2) is reported as 3.21.

YSLELGKAIKQKLWEALCSQGAIS [C22orf31 WT] showed a protein stability index (parent: IOH35430_40) of 2.63.

Protein YLPTRGGTTMASGGRFRCPSCRHE has a protein stability index (parent: IOH40604_11) of 1.83.

For GSEAAVIPLDLGCTQVTQDGDIPN, the protein stability index (parent: IOH35782_37) was 5.39.

Work on FSFKVSRWMGLACFRSLAASSPSI [CCDC70 WT] yielded a protein stability index (parent: IOH40382_3) of 2.79.

FSFRYQQELEEEIKELYENFCKHN gave a protein stability index (parent: IOH37933_69) of 2.5.

In the case of LIKFQVGLKKLNLHEEEHVLLMAI, the protein stability index (parent: IOH39811_53) is reported as 2.28.

For WIHRPGCRCKNSNTVYCKLESCPS [SPRY1 WT], the protein stability index (parent: IOH39997_49) was 2.19.

With YKSFSKEQQTMDNLEKQLICPICL the protein stability index (parent: IOH40604_2) was 2.08.

For ENKPSTCSFSIERILGLDQKKDCV, the protein stability index (parent: IOH40237_3) was 3.12.

In the case of QLDKNSEVYQEVQAMFDTLGIPKS [FAM98B WT], the protein stability index (parent: IOH35542_24) is reported as 3.16.

SLPLQDELAFAEDLVLDEEGARAA showed a protein stability index (parent: IOH39702_47) of 3.08.

For LYLQLAICSSLQNLEKTIFCLQKL, the protein stability index (parent: IOH40091_23) was 2.99.

Protein EKALASILLQDHIRDLDVVVVSVA has a protein stability index (parent: IOH37933_8) of 2.89.

Protein QELEEEIKELYENFCKHNGSKNVF has a protein stability index (parent: IOH37933_70) of 2.68.

HFKKTKKMGGKDFSFRYQQELEEE showed a protein stability index (parent: IOH37933_67) of 2.21.

With FQMEKIEHGYENMNHFTVNLNREE the protein stability index (parent: IOH40604_50) was 2.79.

With TYLCERCQPRNLDKERAVLLQRRK the protein stability index (parent: IOH39874_27) was 2.15.

PRCDLVDLGEGKICFCCEEFQPAK showed a protein stability index (parent: IOH35782_7) of 2.92.

For YNENVYTEDGKLDIWSKSNYQVFQ [MED27 WT], the protein stability index (parent: IOH39902_37) was 2.11.

HDDGYMICCDKCSVWQHIDCMGID gave a protein stability index (parent: IOH39874_22) of 2.33.

ITEEKVCMVCKKKIGNSAFARYPN gave a protein stability index (parent: IOH40537_140) of 2.44.

For ICPICLEMFTKPVVILPCQHNLCR, the protein stability index (parent: IOH40604_5) was 2.21.

VTLELSQLSMLPHLADLVSYSIQK gave a protein stability index (parent: IOH39811_37) of 2.42.

Work on FQASNPYLPTRGGTTMASGGRFRC yielded a protein stability index (parent: IOH40604_10) of 1.74.

Work on FPKSEQVYLHFLSVVTEDGPEPKD [ZNF232 WT] yielded a protein stability index (parent: IOH40635_35) of 2.15.

Work on TIRLRPRQVLCEKCKSTLSPPEAS [PWWP2B WT] yielded a protein stability index (parent: IOH40143_16) of 3.06.

In the case of NLDTEELCEYFSQHLGEYENVLAA, the protein stability index (parent: IOH40093_14) is reported as 2.41.

Protein NLAGFILGCQGAQFVSSVPRCDLV has a protein stability index (parent: IOH35782_4) of 2.97.

YCAKLCEPQWFYEETESSDDVEVL gave a protein stability index (parent: IOH40091_6) of 2.25.

DCMGIDRQHIPDTYLCERCQPRNL showed a protein stability index (parent: IOH39874_25) of 2.99.

KLAEAYLNLGPALSAALASSQKQH showed a protein stability index (parent: IOH40091_29) of 2.78.

Work on FGIEIEVTDINDNAPKFQAENLDV yielded a protein stability index (parent: IOH36207_21) of 2.77.

In the case of TTLLKCYLHTNVALVAPLLRLENN, the protein stability index (parent: IOH40537_76) is reported as 3.28.

With LRLENNHCHIEESEHVLKKAHKYS the protein stability index (parent: IOH40537_79) was 2.32.

EQIAERKRKMVSWEASSLGLVTAA showed a protein stability index (parent: IOH39874_95) of 2.83.

Protein YQSGGRLKRPVNVPFDIFTEEVKF has a protein stability index (parent: IOH29649_40) of 1.82.

RFSRQCVVDKDKRNQCRYCRLKKC [HNF4A WT] showed a protein stability index (parent: IOH35808_17) of 2.46.

Work on YVASHKIEKEEQEKKRKEEEERRR [ACBD3 WT] yielded a protein stability index (parent: IOH39821_30) of 2.71.

In the case of QQVKCIITEEKVCMVCKKKIGNSA, the protein stability index (parent: IOH40537_139) is reported as 2.82.

Protein SKYENYFSASERLSLKRELSWYRG has a protein stability index (parent: IOH40237_15) of 1.92.

For HVPNPPSGISFPSVVDHPMPEERA, the protein stability index (parent: IOH40237_11) was 2.54.

For FSPNSPQFNVSGPGLLEEDNQWMT, the protein stability index (parent: IOH40093_33) was 2.95.

LGVAQRSLPLQDELAFAEDLVLDE showed a protein stability index (parent: IOH39702_46) of 2.84.

Protein VAAALRYLQIFATRRSCIDESQIS has a protein stability index (parent: IOH35782_18) of 1.98.

For YGLQGGMAFLDKRLQVKEHQHEEI, the protein stability index (parent: IOH37933_38) was 2.62.

YQLGEEALLKFREDEGFVREEEDR gave a protein stability index (parent: IOH29649_44) of 4.53.

With CALNALTTTVCLVAAALRYLQIFA the protein stability index (parent: IOH35782_16) was 2.77.

In the case of FHELQMQVTASDSGDPPLSSNVSL, the protein stability index (parent: IOH36207_89) is reported as 2.17.
